± gives the standard deviation of the averaged measurements.
B1: library; a variant is named by its letters at N, in order (parent)
chain: GCUGUCACCGGUGCUUGGUACGUUAUAUUCAGCCGGUCUGAUGAGUCUNNNNNNAGACGAAACAGC

Columns and labels:
(6R,S)-folinic acid [1] = variants of: B1; assay: normalized RNA/DNA level without ligand (relative to sTRSVctl = 100) (log10 (% of sTRSVctl)); HEK293T overexpressing SLC46A1; higher = less ribozyme self-cleavage, higher mRNA level; details: without (6R,S)-folinic acid; ligand present: no
Procedure, shortened: (§1)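 Total RNA, extracted with EDTA 72 h after HEK293T cells were transfected with 4 µg per 6-well well of reporter-linked ribozyme switch library plasmids, was reverse-transcribed, amplified, barcoded and sequenced. Ligand, if used, was added 1 h before transfection. RNA level was derived from RNA reads divided by DNA reads and normalized to a spiked-in non-cleaving sequence or to the top sequences. This was multiplied by 100 and log10-transformed, with the top set of 25 sequences and a ≥100 DNA read minimum.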

(6R,S)-folinic acid [2] = variants of: B1; assay: normalized RNA/DNA level with ligand (relative to sTRSVctl = 100) (log10 (% of sTRSVctl)); HEK293T overexpressing SLC46A1; ligand concentration (+) RNA-Seq: 6 mM; higher = less ribozyme self-cleavage, higher mRNA level; details: with (6R,S)-folinic acid; ligand present: yes
Procedure, shortened: as §1

Row | Variant | normalized RNA/DNA level without ligand (log10) ((6R,S)-folinic acid [1]) | normalized RNA/DNA level with ligand (log10) ((6R,S)-folinic acid [2])
1 | GCUGUCACCGGUGCUUGGUACGUUAUAUUCAGCCGGUCUGAUGAGUCUUGCGGAAGACGAAACAGC | 1.886 ± 0.0066 | 2.01 ± 0.04
2 | GCUGUCACCGGUGCUUGGUACGUUAUAUUCAGCCGGUCUGAUGAGUCUUGCGGUAGACGAAACAGC | 1.976 ± 0.014 | 2.03 ± 0.025
3 | GCUGUCACCGGUGCUUGGUACGUUAUAUUCAGCCGGUCUGAUGAGUCUUGCGGCAGACGAAACAGC | 1.998 ± 0.006 | 1.98 ± 0.045
4 | GCUGUCACCGGUGCUUGGUACGUUAUAUUCAGCCGGUCUGAUGAGUCUCGCGGAAGACGAAACAGC | 2.052 ± 0.0026 | 2.05 ± 0.03
5 | GCUGUCACCGGUGCUUGGUACGUUAUAUUCAGCCGGUCUGAUGAGUCUCGCGGCAGACGAAACAGC | 2.11 ± 0.023 | 2.13 ± 0.047
6 | GCUGUCACCGGUGCUUGGUACGUUAUAUUCAGCCGGUCUGAUGAGUCUCGCGGUAGACGAAACAGC | 2.003 ± 0.019 | 2.035 ± 0.015
7 | GCUGUCACCGGUGCUUGGUACGUUAUAUUCAGCCGGUCUGAUGAGUCUCGCGGGAGACGAAACAGC | 1.938 ± 0.017 | 2.039 ± 0.01
8 | GCUGUCACCGGUGCUUGGUACGUUAUAUUCAGCCGGUCUGAUGAGUCUGGCGUGAGACGAAACAGC | 2.071 ± 0.0047 | 2.06 ± 0.033
9 | GCUGUCACCGGUGCUUGGUACGUUAUAUUCAGCCGGUCUGAUGAGUCUGGCGUUAGACGAAACAGC | 2.08 ± 0.027 | 2.06 ± 0.034
10 | GCUGUCACCGGUGCUUGGUACGUUAUAUUCAGCCGGUCUGAUGAGUCUGGCGUCAGACGAAACAGC | 2.058 ± 0.012 | 2.01 ± 0.047
11 | GCUGUCACCGGUGCUUGGUACGUUAUAUUCAGCCGGUCUGAUGAGUCUGGCGUAAGACGAAACAGC | 2.068 ± 0.004 | 2.04 ± 0.03
12 | GCUGUCACCGGUGCUUGGUACGUUAUAUUCAGCCGGUCUGAUGAGUCUCGCGUGAGACGAAACAGC | 1.963 ± 0.0059 | 2 ± 0.027
13 | GCUGUCACCGGUGCUUGGUACGUUAUAUUCAGCCGGUCUGAUGAGUCUCGCGUCAGACGAAACAGC | 2.071 ± 0.0094 | 2.06 ± 0.036
14 | GCUGUCACCGGUGCUUGGUACGUUAUAUUCAGCCGGUCUGAUGAGUCUCGCGUUAGACGAAACAGC | 2.094 ± 0.014 | 2.07 ± 0.03
15 | GCUGUCACCGGUGCUUGGUACGUUAUAUUCAGCCGGUCUGAUGAGUCUCGCGUAAGACGAAACAGC | 1.993 ± 0.017 | 2.006 ± 0.0037
16 | GCUGUCACCGGUGCUUGGUACGUUAUAUUCAGCCGGUCUGAUGAGUCUUGCGCCAGACGAAACAGC | 2.07 ± 0.015 | 2.043 ± 0.0087
17 | GCUGUCACCGGUGCUUGGUACGUUAUAUUCAGCCGGUCUGAUGAGUCUUGCGCGAGACGAAACAGC | 1.81 ± 0.046 | 1.99 ± 0.056
18 | GCUGUCACCGGUGCUUGGUACGUUAUAUUCAGCCGGUCUGAUGAGUCUGGCGGUAGACGAAACAGC | 2.06 ± 0.026 | 2.03 ± 0.037
19 | GCUGUCACCGGUGCUUGGUACGUUAUAUUCAGCCGGUCUGAUGAGUCUGGCGGGAGACGAAACAGC | 2.1126 ± 0.00086 | 2.08 ± 0.028
20 | GCUGUCACCGGUGCUUGGUACGUUAUAUUCAGCCGGUCUGAUGAGUCUGGCGGAAGACGAAACAGC | 2.064 ± 0.0089 | 2.021 ± 0.016
21 | GCUGUCACCGGUGCUUGGUACGUUAUAUUCAGCCGGUCUGAUGAGUCUGGCGGCAGACGAAACAGC | 2.012 ± 0.018 | 2.014 ± 0.013

Row | Variant | normalized RNA/DNA level without ligand (log10) ((6R,S)-folinic acid [1]) | normalized RNA/DNA level with ligand (log10) ((6R,S)-folinic acid [2])
22 | GCUGUCACCGGUGCUUGGUACGUUAUAUUCAGCCGGUCUGAUGAGUCUGGCUAAAGACGAAACAGC | 2.036 ± 0.011 | 2.05 ± 0.033
23 | GCUGUCACCGGUGCUUGGUACGUUAUAUUCAGCCGGUCUGAUGAGUCUAGCGUCAGACGAAACAGC | 2.083 ± 0.0033 | 2.06 ± 0.037
24 | GCUGUCACCGGUGCUUGGUACGUUAUAUUCAGCCGGUCUGAUGAGUCUAGCGUUAGACGAAACAGC | 2 ± 0.021 | 2.015 ± 0.0096
25 | GCUGUCACCGGUGCUUGGUACGUUAUAUUCAGCCGGUCUGAUGAGUCUAGCGUGAGACGAAACAGC | 1.92 ± 0.023 | 2.02 ± 0.03
26 | GCUGUCACCGGUGCUUGGUACGUUAUAUUCAGCCGGUCUGAUGAGUCUAGCGUAAGACGAAACAGC | 1.973 ± 0.0096 | 2 ± 0.028
27 | GCUGUCACCGGUGCUUGGUACGUUAUAUUCAGCCGGUCUGAUGAGUCUCGCGCGAGACGAAACAGC | 1.995 ± 0.016 | 1.95 ± 0.1
28 | GCUGUCACCGGUGCUUGGUACGUUAUAUUCAGCCGGUCUGAUGAGUCUCGCGCUAGACGAAACAGC | 2.08 ± 0.043 | 2.05 ± 0.047
29 | GCUGUCACCGGUGCUUGGUACGUUAUAUUCAGCCGGUCUGAUGAGUCUAGCGGGAGACGAAACAGC | 2.004 ± 0.016 | 2.055 ± 0.019
30 | GCUGUCACCGGUGCUUGGUACGUUAUAUUCAGCCGGUCUGAUGAGUCUAGCGGAAGACGAAACAGC | 2.024 ± 0.0064 | 2.024 ± 0.01
31 | GCUGUCACCGGUGCUUGGUACGUUAUAUUCAGCCGGUCUGAUGAGUCUAGCGGCAGACGAAACAGC | 2.104 ± 0.0038 | 2.05 ± 0.039
32 | GCUGUCACCGGUGCUUGGUACGUUAUAUUCAGCCGGUCUGAUGAGUCUGGCGCGAGACGAAACAGC | 2.085 ± 0.011 | 2.06 ± 0.05
33 | GCUGUCACCGGUGCUUGGUACGUUAUAUUCAGCCGGUCUGAUGAGUCUGGCGCUAGACGAAACAGC | 2.113 ± 0.014 | 2.1 ± 0.057
34 | GCUGUCACCGGUGCUUGGUACGUUAUAUUCAGCCGGUCUGAUGAGUCUUGCGUUAGACGAAACAGC | 1.972 ± 0.018 | 2 ± 0.051
35 | GCUGUCACCGGUGCUUGGUACGUUAUAUUCAGCCGGUCUGAUGAGUCUUGCGUCAGACGAAACAGC | 2.09 ± 0.0072 | 2.04 ± 0.044
36 | GCUGUCACCGGUGCUUGGUACGUUAUAUUCAGCCGGUCUGAUGAGUCUUGCGUAAGACGAAACAGC | 1.904 ± 0.015 | 1.98 ± 0.035
37 | GCUGUCACCGGUGCUUGGUACGUUAUAUUCAGCCGGUCUGAUGAGUCUAGCUAAAGACGAAACAGC | 2 ± 0.033 | 1.999 ± 0.0025
38 | GCUGUCACCGGUGCUUGGUACGUUAUAUUCAGCCGGUCUGAUGAGUCUAGCGCGAGACGAAACAGC | 1.972 ± 0.019 | 2 ± 0.037
39 | GCUGUCACCGGUGCUUGGUACGUUAUAUUCAGCCGGUCUGAUGAGUCUAGCGCUAGACGAAACAGC | 2.027 ± 0.0049 | 2.01 ± 0.026
40 | GCUGUCACCGGUGCUUGGUACGUUAUAUUCAGCCGGUCUGAUGAGUCUAGCGCCAGACGAAACAGC | 2.058 ± 0.017 | 2.03 ± 0.037
41 | GCUGUCACCGGUGCUUGGUACGUUAUAUUCAGCCGGUCUGAUGAGUCUCGCUAAAGACGAAACAGC | 1.97 ± 0.019 | 1.99 ± 0.055

Reference: the supplement of paper PMC6757056
